T1: p63γ (UniProt Q9H3D4-5 40-487, limits assumed)
T1 sequence (looked up): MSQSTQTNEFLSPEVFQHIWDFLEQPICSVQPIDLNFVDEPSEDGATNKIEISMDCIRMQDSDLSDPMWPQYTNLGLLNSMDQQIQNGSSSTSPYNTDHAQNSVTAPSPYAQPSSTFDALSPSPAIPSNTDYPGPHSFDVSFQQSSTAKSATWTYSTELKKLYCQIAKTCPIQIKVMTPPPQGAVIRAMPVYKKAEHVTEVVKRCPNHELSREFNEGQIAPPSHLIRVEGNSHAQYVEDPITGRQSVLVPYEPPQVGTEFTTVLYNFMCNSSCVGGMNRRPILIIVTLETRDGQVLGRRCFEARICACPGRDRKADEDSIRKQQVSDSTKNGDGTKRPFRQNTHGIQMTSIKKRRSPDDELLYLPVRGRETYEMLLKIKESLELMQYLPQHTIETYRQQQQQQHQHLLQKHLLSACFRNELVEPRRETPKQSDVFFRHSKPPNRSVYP


How the values were obtained:
p53 (wild type) = p53 (wild type) (human, UniProt P04637 1-393); experiment: cell-based or functional assay
Chain of p53 (wild type) (P04637 whole entry): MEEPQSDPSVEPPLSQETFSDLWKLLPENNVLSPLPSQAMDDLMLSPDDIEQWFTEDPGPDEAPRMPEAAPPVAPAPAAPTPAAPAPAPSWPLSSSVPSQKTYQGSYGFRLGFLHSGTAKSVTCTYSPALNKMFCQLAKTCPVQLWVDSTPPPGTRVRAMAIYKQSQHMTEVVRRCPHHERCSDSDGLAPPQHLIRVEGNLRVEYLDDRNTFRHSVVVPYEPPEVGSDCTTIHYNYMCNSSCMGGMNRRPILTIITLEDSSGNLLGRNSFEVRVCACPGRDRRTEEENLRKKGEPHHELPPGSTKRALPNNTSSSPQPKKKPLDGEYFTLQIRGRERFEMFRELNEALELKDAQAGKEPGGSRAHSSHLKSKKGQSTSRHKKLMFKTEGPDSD

p63γ = target: T1, p63γ; experiment: cell-based or functional assay

transactivation function on the Bax promoter (Bax-luc reporter) (p53 (wild type)) [fold]	transactivation function on the Bax promoter (Bax-luc reporter) (p63γ) [fold]	Binder
~6	4	Apoptosis Stimulating Protein 1 (ASPP1) (other) MMPMILTVFLSNNEQILTEVPITPETTCRDVVEFCKEPGEGSCHLAEVWRGNERPIPFDHMMYEHLQIWGPRREEVKFFLRHEDSPTENSEQGGRQTQEQRTQRNVINVPGDKRTEYGVGNPRVELTLSELQDMAARQQQQIENQQQMLVAKEQRLHFLKQQERRQQQSISENEKLQKLKERVEAQENKLKKIRAMRGQVDYSKIMNGNLSAEIERFSAMFQEKKQEVQTAILRVDQLSQQLEDLKKGKLNGFQSYNGKLTGPAAVELKRLYQELQIRNQLNQEQNSKLQQQKELLNKRNMEVAMMDKRISELRERLYGKKIQLNRVNGTSSPQSPLSTSGRVAAVGPYIQVPSAGSFPVLGDPIKPQSLSIASNAAHGRSKSANDGNWPTLKQNSSSSVKPVQVAGADWKDPSVEGSVKQGTVSSQPVPFSALGPTEKPGIEIGKVPPPIPGVGKQLPPSYGTYPSPTPLGPGSTSSLERRKEGSLPRPSAGLPSRQRPTLLPATGSTPQPGSSQQIQQRISVPPSPTYPPAGPPAFPAGDSKPELPLTVAIRPFLADKGSRPQSPRKGPQTVNSSSIYSMYLQQATPPKNYQPAAHSALNKSVKAVYGKPVLPSGSTSPSPLPFLHGSLSTGTPQPQPPSESTEKEPEQDGPAAPADGSTVESLPRPLSPTKLTPIVHSPLRYQSDADLEALRRKLANAPRPLKKRSSITEPEGPGGPNIQKLLYQRFNTLAGGMEGTPFYQPSPSQDFMGTLADVDNGNTNANGNLEELPPAQPTAPLPAEPAPSSDANDNELPSPEPEELICPQTTHQTAEPAEDNNNNVATVPTTEQIPSPVAEAPSPGEEQVPPAPLPPASHPPATSTNKRTNLKKPNSERTGHGLRVRFNPLALLLDASLEGEFDLVQRIIYEVEDPSKPNDEGITPLHNAVCAGHHHIVKFLLDFGVNVNAADSDGWTPLHCAASCNSVHLCKQLVESGAAIFASTISDIETAADKCEEMEEGYIQCSQFLYGVQEKLGVMNKGVAYALWDYEAQNSDELSFHEGDALTILRRKDESETEWWWARLGDREGYVPKNLLGLYPRIKPRQRTLA
20	7	ASPP2 (1-1128) (other) MMPMFLTVYLSNNEQHFTEVPVTPETICRDVVDLCKEPGESDCHLAEVWCGSERPVADNERMFDVLQRFGSQRNEVRFFLRHERPPGRDIVSGPRSQDPSLKRNGVKVPGEYRRKENGVNSPRMDLTLAELQEMASRQQQQIEAQQQLLATKEQRLKFLKQQDQRQQQQVAEQEKLKRLKEIAENQEAKLKKVRALKGHVEQKRLSNGKLVEEIEQMNNLFQQKQRELVLAVSKVEELTRQLEMLKNGRIDSHHDNQSAVAELDRLYKELQLRNKLNQEQNAKLQQQRECLNKRNSEVAVMDKRVNELRDRLWKKKAALQQKENLPVSSDGNLPQQAASAPSRVAAVGPYIQSSTMPRMPSRPELLVKPALPDGSLVIQASEGPMKIQTLPNMRSGAASQTKGSKIHPVGPDWSPSNADLFPSQGSASVPQSTGNALDQVDDGEVPLREKEKKVRPFSMFDAVDQSNAPPSFGTLRKNQSSEDILRDAQVANKNVAKVPPPVPTKPKQINLPYFGQTNQPPSDIKPDGSSQQLSTVVPSMGTKPKPAGQQPRVLLSPSIPSVGQDQTLSPGSKQESPPAAAVRPFTPQPSKDTLLPPFRKPQTVAASSIYSMYTQQQAPGKNFQQAVQSALTKTHTRGPHFSSVYGKPVIAAAQNQQQHPENIYSNSQGKPGSPEPETEPVSSVQENHENERIPRPLSPTKLLPFLSNPYRNQSDADLEALRKKLSNAPRPLKKRSSITEPEGPNGPNIQKLLYQRTTIAAMETISVPSYPSKSASVTASSESPVEIQNPYLHVEPEKEVVSLVPESLSPEDVGNASTENSDMPAPSPGLDYEPEGVPDNSPNLQNNPEEPNPEAPHVLDVYLEEYPPYPPPPYPSGEPEGPGEDSVSMRPPEITGQVSLPPGKRTNLRKTGSERIAHGMRVKFNPLALLLDSSLEGEFDLVQRIIYEVDDPSLPNDEGITALHNAVCAGHTEIVKFLVQFGVNVNAADSDGWTPLHCAASCNNVQVCKFLVESGAAVFAMTYSDMQTAADKCEEMEEGYTQCSQFLYGVQEKMGIMNKGVIYALWDYEPQNDDELPMKEGDCMTIIHREDEDEIEWWWARLNDKEGYVPRNLLGLYPRIKPRQRSLA

From patent US20040228866A1 (LUDWIG INSTITUTE FOR CANCER RESEARCH, published 2004)
